One experiment concerns the target HLA-A*02:06. Kind of experiment: IEDB peptide-MHC binding, cellular MHC/competitive/fluorescence; ≥ and ≤ were set here for values at or beyond the usual limits of such assays.
For experiment [1], the target named is HLA-A*68:02. The description is as above.
Experiment [2] deals with HLA-A*02:01. In words: IEDB peptide-MHC binding, purified MHC/competitive/radioactivity; ≥ and ≤ were set here for values at or beyond the usual limits of such assays.
The target in another experiment is HLA-A*02:02. The experiment is described as above.
In a further experiment the target is HLA-A*02:03. Described as above.
In experiment [3] the target is HLA-A*02:01. In words: IEDB peptide-MHC binding, cellular MHC/competitive/fluorescence; ≥ and ≤ were set here for values at or beyond the usual limits of such assays. To be noted: source organism: Vaccinia virus WR.
In experiment [4] the target is HLA-A*68:02. Kind of experiment: IEDB peptide-MHC binding, purified MHC/competitive/radioactivity; ≥ and ≤ were set here for values at or beyond the usual limits of such assays. To be noted: source organism: Vaccinia virus WR.
[5] abbreviates: source organism: Vaccinia virus WR.
Where [6] appears, read: source organism: Hepacivirus hominis.
[7] abbreviates: source organism: Influenza A virus.
Where [8] appears, read: source organism: Mammarenavirus brazilense.

A value given as a limit tells only on which side of the number the result lay.

As usually defined, the IC50 is the concentration needed to halve the response being measured. For VLQQNNSFII, the 50% inhibitory concentration (IC50) with HLA-A*02:06 (setting [5]) was 9640 nM; in the experiment with HLA-A*68:02 [1] (setting [5]), 16600 nM; with HLA-A*02:01 [2] (setting [5]), 709 nM; in the experiment with HLA-A*02:02 (setting [5]), 665 nM; with HLA-A*02:03 (setting [5]), 1030 nM.

For KIMSGEKPSV, the IC50 in the experiment with HLA-A*02:06 (setting [6]) was 9470 nM; with HLA-A*68:02 [1] (setting [6]), at least 70000 nM; in the experiment with HLA-A*02:01 [2] (setting [6]), 1120 nM; with HLA-A*02:02 (setting [6]), 411 nM; with HLA-A*02:03 (setting [6]) it was 1390 nM.

As for ILANERYRSA, the 50% inhibitory concentration (IC50) with HLA-A*02:06 (setting [5]) was determined as 7810 nM; with HLA-A*68:02 [1] (setting [5]), 26500 nM; with HLA-A*02:01 [2] (setting [5]), 802 nM; with HLA-A*02:02 (setting [5]), 104 nM; with HLA-A*02:03 (setting [5]), 18 nM.

For SLALKNSQA, the IC50 with HLA-A*02:06 (setting [5]) was 19000 nM; with HLA-A*68:02 [1] (setting [5]), 29600 nM; in the experiment with HLA-A*02:01 [2] (setting [5]), 2490 nM; in the experiment with HLA-A*02:02 (setting [5]), 662 nM; with HLA-A*02:03 (setting [5]), 459 nM.

As for LMELPVKTDI, the half-maximal inhibitory concentration (IC50) with HLA-A*02:06 (setting [5]) was 12900 nM; with HLA-A*68:02 [1] (setting [5]) it was at least 70000 nM; with HLA-A*02:01 [2] (setting [5]), 1330 nM; in the experiment with HLA-A*02:02 (setting [5]), 1510 nM; in the experiment with HLA-A*02:03 (setting [5]) it was 986 nM.

On to ALKNSQAEL, for which the half-inhibitory concentration (IC50) with HLA-A*02:06 (setting [5]) is 33000 nM; with HLA-A*68:02 [1] (setting [5]) it was at least 70000 nM; with HLA-A*02:01 [2] (setting [5]), 1740 nM; with HLA-A*02:02 (setting [5]), 71 nM; with HLA-A*02:03 (setting [5]), 17 nM.

DVDMDFDLNI: the IC50 in the experiment with HLA-A*02:06 (setting [5]) amounted to 5830 nM; with HLA-A*68:02 [1] (setting [5]) it was 8840 nM; with HLA-A*02:01 [2] (setting [5]), 4560 nM; with HLA-A*02:02 (setting [5]), 2040 nM; with HLA-A*02:03 (setting [5]) it was 1520 nM.

Consider LLFLVLIMLI, for which the 50% inhibitory concentration (IC50) with HLA-A*02:06 (source organism: SARS-CoV1) turned out to be 8300 nM; in the experiment with HLA-A*68:02 [1] (source organism: SARS-CoV1), 5100 nM; with HLA-A*02:01 [2] (source organism: SARS-CoV1), 592 nM; with HLA-A*02:02 (source organism: SARS-CoV1) it was 447 nM; with HLA-A*02:03 (source organism: SARS-CoV1), 3150 nM.

As to VMPEKRNVVV, the half-inhibitory concentration (IC50) with HLA-A*02:06 (setting [5]) amounted to 27600 nM; with HLA-A*68:02 [1] (setting [5]) it was 6740 nM; with HLA-A*02:01 [2] (setting [5]), 3920 nM; in the experiment with HLA-A*02:02 (setting [5]) it was 3540 nM; with HLA-A*02:03 (setting [5]) it was 299 nM.

On to VLQQNNSFI, for which the half-maximal inhibitory concentration (IC50) stood at 8680 nM with HLA-A*02:06 (setting [5]); 16300 nM in the experiment with HLA-A*68:02 [1] (setting [5]); 234 nM with HLA-A*02:01 [2] (setting [5]); 100 nM with HLA-A*02:02 (setting [5]); 249 nM with HLA-A*02:03 (setting [5]).

Regarding RLNKRSYLI, the IC50 stood at 18500 nM in the experiment with HLA-A*02:06 (setting [7]), 42600 nM with HLA-A*68:02 [1] (setting [7]), 23 nM with HLA-A*02:02 (setting [7]) and 146 nM in the experiment with HLA-A*02:03 (setting [7]).

For the sequence RMGAVTTEV, the half-maximal inhibitory concentration (IC50) with HLA-A*02:06 (setting [7]) is 5520 nM; with HLA-A*68:02 [1] (setting [7]), 27100 nM; with HLA-A*02:01 [2] (setting [7]), 222 nM; with HLA-A*02:02 (setting [7]) it was 90 nM; with HLA-A*02:03 (setting [7]), 73 nM.

Take YIRRNMINKL: the IC50 in the experiment with HLA-A*02:06 (setting [5]) is 8660 nM; in the experiment with HLA-A*68:02 [1] (setting [5]), 13700 nM; in the experiment with HLA-A*02:01 [2] (setting [5]) it was 3800 nM; with HLA-A*02:02 (setting [5]), 820 nM; in the experiment with HLA-A*02:03 (setting [5]), 70 nM.

With ALTDVEKRI, the IC50 is 14300 nM with HLA-A*02:06 (setting [5]); 23900 nM with HLA-A*68:02 [1] (setting [5]); 1150 nM with HLA-A*02:01 [2] (setting [5]); 74 nM in the experiment with HLA-A*02:02 (setting [5]); 1490 nM with HLA-A*02:03 (setting [5]).

Consider KLDDTGKKEL, for which the concentration for half-maximal inhibition (IC50) with HLA-A*02:06 (setting [5]) amounted to 5530 nM; in the experiment with HLA-A*68:02 [1] (setting [5]), 35200 nM; with HLA-A*02:01 [2] (setting [5]) it was 450 nM; in the experiment with HLA-A*02:02 (setting [5]) it was 101 nM; in the experiment with HLA-A*02:03 (setting [5]) it was 139 nM.

With VLTILYYGA, the half-inhibitory concentration (IC50) in the experiment with HLA-A*02:06 (setting [5]) stood at 6240 nM; with HLA-A*68:02 [1] (setting [5]) it was 18600 nM; in the experiment with HLA-A*02:01 [2] (setting [5]) it was 212 nM; with HLA-A*02:02 (setting [5]) it was 1.3 nM; with HLA-A*02:03 (setting [5]), 18 nM.

For YLSKEDRII, the half-maximal inhibitory concentration (IC50) with HLA-A*02:06 (setting [5]) is 10500 nM; with HLA-A*68:02 [1] (setting [5]) it was at least 70000 nM; with HLA-A*02:01 [2] (setting [5]), 1500 nM; with HLA-A*02:02 (setting [5]), 305 nM; with HLA-A*02:03 (setting [5]), 435 nM.

Turning to KCFGNTALA, the IC50 with HLA-A*02:06 (setting [8]) is at least 70000 nM; in the experiment with HLA-A*68:02 [1] (setting [8]), 25900 nM; in the experiment with HLA-A*02:01 [2] (setting [8]), 3330 nM; with HLA-A*02:02 (setting [8]), 31 nM; in the experiment with HLA-A*02:03 (setting [8]), 1090 nM.

In the case of NLYNIRNL, the concentration for half-maximal inhibition (IC50) worked out at 50800 nM with HLA-A*02:06 (setting [7]); 15300 nM in the experiment with HLA-A*68:02 [1] (setting [7]); 1340 nM with HLA-A*02:01 [2] (setting [7]); 1330 nM with HLA-A*02:02 (setting [7]); 187 nM in the experiment with HLA-A*02:03 (setting [7]).

In the case of KLKVDSDSGL, the IC50 worked out at 10000 nM in the experiment with HLA-A*02:06 (setting [5]); 28200 nM with HLA-A*68:02 [1] (setting [5]); 2360 nM with HLA-A*02:01 [2] (setting [5]); 75 nM in the experiment with HLA-A*02:02 (setting [5]); 56 nM with HLA-A*02:03 (setting [5]).

Turning to IVSLCPTKKL, the IC50 is 9970 nM with HLA-A*02:01 [3]; 28500 nM with HLA-A*02:06 (setting [5]); 9.5 nM with HLA-A*02:02 (setting [5]); 29 nM with HLA-A*02:03 (setting [5]); 520 nM with HLA-A*68:02 [4].

For ITHTNITTLL, the concentration for half-maximal inhibition (IC50) amounted to 11900 nM with HLA-A*02:01 [3]; 14800 nM with HLA-A*02:06 (setting [5]); 1680 nM with HLA-A*02:02 (setting [5]); 101 nM in the experiment with HLA-A*02:03 (setting [5]); 311 nM with HLA-A*68:02 [4].

Regarding AAKTPVIVV, the IC50 worked out at 9430 nM with HLA-A*02:01 [3]; 25300 nM with HLA-A*02:06 (setting [5]); 1360 nM with HLA-A*02:02 (setting [5]); 1630 nM with HLA-A*02:03 (setting [5]); 4280 nM with HLA-A*68:02 [4].

For the origin of these results see the Immune Epitope Database (IEDB).
